The text below walks through data of patent publication US20030104635A1, “Screening methods” (AVIDEX LIMITED, priority 1999, published 2003).

Test [1] deals with tax 11-19 peptide-HLA-A2 complex (biotinylated). The experiment in a line: SPR (BIAcore 3000), sTCR-specific response over repeated injections after compound mixtures. On the technique in general: In SPR one partner is held on a chip, and binding of the other changes the refractive index at the surface.
Another test concerns MHC/peptide complex. As to conditions: cited from earlier work.
The target in the next test is B7. As to conditions: read-out: Kd of CD28-B7 interaction; cited from earlier work.
In test [2] the target is influenza matrix peptide-HLA-A2 complex (biotinylated) (influenza virus). The experiment in a line: SPR (BIAcore 3000), sTCR-specific response over repeated injections after compound mixtures.
The target of test [3] is HLA-A2 (prepared as described in Example A1 and tagged with a biotin molecule). Kind of test: SPR (BIAcore 3000), sCD8αα-specific response as a percentage of the initial response.
Test [4] deals with class I MHC-restricted T cells. As to conditions: cited from earlier work.

A6 soluble T cell receptor (TCR): the loss of signal over the run in test [1] stood at 33%.

Regarding “CD8: T cell coreceptor binding class I MHC/peptide complex”, the “off rate from an MHC/peptide complex” value in the test on MHC/peptide complex is given as “approximately 10 s^−1”. At MHC/peptide complex (read-out: Kd of interaction with MHC/peptide complex), the Kd is about 500 µM.

With “CD28: receptor with low affinity interaction with B7”, the Kd at B7 was about 4 µM.

Regarding JM22 soluble T cell receptor (TCR), in test [2], the loss of signal after 10 mixtures came to 10.2% and the loss of signal over the run was 9.3%.

For the substance “recombinant soluble form of CD8 (sCD8αα) (from UniProt P01732 22-141) (receptor)”, in test [3], the loss of signal over the run came out at 3.6%.

Regarding “soluble, recombinant CD8: soluble, recombinant CD8 derived from the human coreceptor”, the “inhibition of class I MHC-restricted T cells responses” value in test [4] was “potent inhibitor”.
